Paper PMC8240473 (DNA repair, 2020)
Where “and” joins values, the source holds several entries; their conditions need not be identical. Identical values can stand only once. Like-named read-outs stand apart in the source and are kept apart here. Each block holds one molecule with its values, some of them ahead of it. No end group written: not given here. *: point of attachment. Biotin = O=C1N[C@H]2[C@H](CS[C@H]2CCCCC(=O)*)N1; Ahx = NCCCCCC(=O)O

B1: N-terminally biotinylated peptide containing PIP1 of pol η (peptide)
chain: {Biotin-Ahx}-QKKQVTSSKNILSFFTRKK
B2: PCNA, purified (natural protein, yeast, UniProt P15873 1-258, looked up)
chain: MLEAKFEEASLFKRIIDGFKDCVQLVNFQCKEDGIIAQAVDDSRVLLVSLEIGVEAFQEYRCDHPVTLGMDLTSLSKILRCGNNTDTLTLIADNTPDSIILLFEDTKKDRIAEYSLKLMDIDADFLKIEELQYDSTLSLPSSEFSKIVRDLSQLSDSINIMITKETIKFVADGDIGSGSVIIKPFVDMEHPETSIKLEMDQPVDLTFGAKYLLDIIKGSSLSDRVGIRLSSEAPALFQFDLKSGFLQFFLAPKFNDEE
B3: Rad6-Rad18 complex, purified (complex, yeast)
chain 1: MDHQITTASDFTTTSIPSLYQLDTLLRCHICKDFLKVPVLTPCGHTFCSLCIRTHLNNQPNCPLCLFEFRESLLRSEFLVSEIIQSYTSLRSSLLDALRIPKPTPVPENEEVPGPENSSWIELISESESDSVNAADDDLQIVATSERKLAKRSMTDILPLSSKPSKRNFAMFRSERIKKKSKPNEQMAQCPICQQFYPLKALEKTHLDECLTLQSLGKKPKISTTFPTESNPHNKSSSRFKVRTPEVDKSSCGETSHVDKYLNSMMSAEHQRLPKINFTSMTQSQIKQKLSSLGLSTNGTRQNMIKRYNHYEMLWNSNFCDSLEPVDEAELKRQLLSWDVSHNKTPQNSSNKGGISKLMIMKSNGKSSSYRKLLENFKNDKFNRKGWMVMFRKDFARLIREAKMKIKTGSSDSSGSVGHSNDGDGVEKVQSDQGTEDQQMEKDQDTVINEDRVAGERNLPNEDSTDADLSRELMDLNEYSKDPPGNN
chain 2: MSTPARRRLMRDFKRMKEDAPPGVSASPLPDNVMVWNAMIIGPADTPYEDGTFRLLLEFDEEYPNKPPHVKFLSEMFHPNVYANGEICLDILQNRWTPTYDVASILTSIQSLFNDPNPASPANVEAATLFKDHKSQYVKRVKETVEKSWEDDMDDMDDDDDDDDDDDDDEAD
B4: Rad6, purified (enzyme, yeast, UniProt P06104 1-172, looked up)
chain: B3 chain 2

Columns and labels:
Assay in all cases: BLI
[1] = biological target: N-terminally biotinylated peptide containing the R6BD of Rad18 (yeast)
[2] = biological target: N-terminally biotinylated peptide containing the R6BD of Rad18 (yeast); remark: listed apart in the source
PCNA, purified = biological target: B2
Rad6, purified = biological target: B4
[3] = biological target: B3
[4] = biological target: B1

Kd [1]: 2500 nM
Kd [2]: 2800 nM
Molecule: Rad6, purified (from UniProt P06104 1-172) (enzyme)

Molecule: B1
Kd (PCNA, purified): 7.2 ± 2.4 nM
koff (PCNA, purified): 0.0054 s⁻¹
Kd (Rad6, purified): 2300 ± 400 nM
koff (Rad6, purified): 0.02 s⁻¹
Kd [3]: 1200 ± 100 nM
koff [3]: 0.0008 s⁻¹

Molecule: B2
dwell time [4]: 190 s

Kd (PCNA, purified): 12000 nM and 13000 nM
koff (PCNA, purified): 0.3 s⁻¹
koff (Rad6, purified): 0.6 s⁻¹
Kd [3]: 3700 ± 500 nM
koff [3]: 0.13 s⁻¹
Molecule: {Biotin-Ahx}-ESSKNLSFGEKRLLFSRKRP [N-terminally biotinylated peptide containing PIP2 of pol η]

Molecule: B3
dwell time [4]: 1300 s

Molecule: B4
dwell time [4]: 50 s

Kd (Rad6, purified): 600 nM
Molecule: NKRLKKQGTLESFFKRKAK (not fully specified) [PIP-like motif of Pol32 (peptide)]
